Results reported in patent US20110257076A1 (INDIANA UNIVERSITY RESEARCH AND TECHNOLOGY, published 2011).
Ends that are not written are not given here.

How the values were obtained:
human insulin receptor [1] = molecular target: T1, human insulin receptor (human, UniProt P06213 28-1382); assay: cell-based or functional assay; design: EC50, total phosphorylation, Insulin Receptor (Mar. 31, 2008): unit not given beside the values
human IGF-1 receptor [2] = molecular target: T2, human IGF-1 receptor (human, UniProt P08069 31-1367); assay: cell-based or functional assay; design: EC50, total phosphorylation, Insulin Receptor (Mar. 31, 2008): unit not given beside the values
human insulin receptor [3] = molecular target: T1, human insulin receptor; assay: SPA competition vs [125I]-insulin, membranes with human insulin receptor (Example 3); Nov. 9, 2007
Method: (§1) Non-specifically bound (NSB) radioactivity was measured in the wells with a four-fold concentration excess of “cold” native ligand than the highest concentration in test samples. Total bound radioactivity was detected in the wells with no competitor. Percent specific binding was calculated as following: % Specific Binding=(Bound-NSB/Total bound-NSB)×100. IC50 values were determined by using Origin software (OriginLab, Northampton, Mass.).

human insulin receptor [4] = molecular target: T1, human insulin receptor; assay: SPA competition vs [125I]-insulin, membranes with human insulin receptor (Example 3); Dec. 4, 2007
Method: as §1

human insulin receptor [5] = molecular target: T1, human insulin receptor; assay: SPA competition vs [125I]-insulin, membranes with human insulin receptor (Example 3); Jun. 5, 2008
Method: as §1

human insulin receptor [6] = molecular target: T1, human insulin receptor; assay: SPA competition vs [125I]-insulin, membranes with human insulin receptor (Example 3); May 29, 2007
Method: as §1

human insulin receptor [7] = molecular target: T1, human insulin receptor; assay: SPA competition vs [125I]-insulin, membranes with human insulin receptor (Example 3); May 18, 2007
Method: as §1

human insulin receptor [8] = molecular target: T1, human insulin receptor; assay: SPA competition vs [125I]-insulin, membranes with human insulin receptor (Example 3); May 22, 2007
Method: as §1

human IGF-1 receptor [9] = molecular target: T2, human IGF-1 receptor; assay: SPA competition vs [125I]-IGF-1, membranes with human IGF-1 receptor (Example 3); Jun. 4, 2007
Method: as §1

human IGF-1 receptor [10] = molecular target: T2, human IGF-1 receptor; assay: SPA competition vs [125I]-IGF-1, membranes with human IGF-1 receptor (Example 3); Sep. 18, 2007
Method: as §1

B1: IGF-1 A:B(E10 Y16L17)-E31E32 B-COOH (ligand)
chain 1: GIVDECCFRSCDLRRLEMYCA-NH2
chain 2: GPETLCGAELVDALYLVCGDRGFYFNKPTEE-OH
modifications: disulfide (positions not given here); not fully specified (bridges)
Question: With B1 as the binder, how does the “EC50, total phosphorylation, Insulin Receptor (Mar. 31, 2008)” value (human insulin receptor [1]) read?
Answer: The value was 7.

B2: IGF-1 A:B (H5D10Y16L17) DPI (ligand)
chain 1: GIVDECCFRSCDLRRLEMYCA-NH2
chain 2: GPEHLCGADLVDALYLVCGDRGFY-NH2
modifications: disulfide (positions not given here); not fully specified (bridges)
Question: Which “% IGF, total phosphorylation, IGF-1 Receptor” value (“% IGF, total phosphorylation” below) (human IGF-1 receptor [2]) does the source give for B2 here?
Answer: Its value is 7.1%.

B3: IGF-1 A (H8 A9 N21):B(H5D10Y16L17) DPI A-COOH (ligand)
chain 1: GIVDECCHASCDLRRLEMYCN-OH
chain 2: GPEHLCGADLVDALYLVCGDRGFY-NH2
modifications: disulfide (positions not given here); not fully specified (bridges)
Question: How did the “% IGF, total phosphorylation” value (human IGF-1 receptor [2]) turn out when B3 was run?
Answer: Its value is 181%.

B4: IGF-1 A:B(D10Y16L17) DPI A-COOH (ligand)
chain 1: GIVDECCFRSCDLRRLEMYCA-OH
chain 2: GPETLCGADLVDALYLVCGDRGFY-NH2
modifications: disulfide (positions not given here); not fully specified (bridges)
Question: For B4, which “% native insulin activity (0.6 nM)” value (human insulin receptor [3]) is on record?
Answer: Its value is 231%.

Question: And the “% native insulin activity (0.6 nM)” value (human insulin receptor [4])?
Answer: The value was 300%.

Question: And the “% Insulin, total phosphorylation, Insulin Receptor” value (human insulin receptor [1])?
Answer: The value was 1580%.

Question: And the “% IGF, total phosphorylation” value (human IGF-1 receptor [2])?
Answer: The value was 112%.

Question: What about the “% native insulin activity (0.6 nM)” value (human insulin receptor [5]) of the same binder?
Answer: The value was 144%.

B5: IGF-1 A (H8 A9 N21):B(H5D10Y16L17 A22) DPI A-COOH (ligand)
chain 1: GIVDECCHASCDLRRLEMYCN-OH
chain 2: GPEHLCGADLVDALYLVCGDAGFY-NH2
modifications: disulfide (positions not given here); not fully specified (bridges)
Question: With B5 as the binder, how does the “% IGF, total phosphorylation” value (human IGF-1 receptor [2]) read?
Answer: The value was 7.7%.

B6: IGF-1 A:In (1-17)-IGF-1 B (18-30) (ligand)
chain 1: GIVDECCFRSCDLRRLEMYCA-NH2
chain 2: FVNQHLCGSHLVEALYLVCGDRGFYFNKPT-NH2
modifications: disulfide (positions not given here); not fully specified (bridges)
notes: The B chain is a chimera; The conversion is mine
Question: For B6, which “% native insulin activity (0.6 nM)” value (human insulin receptor [6]) is on record?
Answer: Its value is 24.2%.

Question: What about the “% native insulin activity (0.6 nM)” value (human insulin receptor [7]) of the same binder?
Answer: The value was 22.5%.

Question: And the “% insulin (in test)” value (human insulin receptor [8])?
Answer: The value was 14%.

Question: And the “% native insulin activity (0.6 nM)” value (human insulin receptor [8])?
Answer: The value was 21.7%.

B7: IGF-1 A:B(E10Y16L17) (ligand)
chain 1: GIVDECCFRSCDLRRLEMYCA-NH2
chain 2: GPETLCGAELVDALYLVCGDRGFYFNKPT-NH2
modifications: disulfide (positions not given here); not fully specified (bridges)
Question: Which results are given for B7?
Answer: % IGF-1 (in test) (human IGF-1 receptor [9]): 6.8%; % native IGF-1 activity (0.55 nM) (human IGF-1 receptor [9]): 7%; % IGF-1 (in test) (human IGF-1 receptor [10]): 5%; % native IGF-1 activity (0.55 nM) (human IGF-1 receptor [10]): 4.5%; % native insulin activity (0.6 nM) (human insulin receptor [6]): 118%; % Insulin, total phosphorylation, Insulin Receptor (human insulin receptor [1]): 49.2%; EC50, total phosphorylation, Insulin Receptor (Mar. 31, 2008) (human insulin receptor [1]): 2.57; % IGF, total phosphorylation, IGF-1 Receptor (human IGF-1 receptor [2]): 13%; % insulin (in test) (human insulin receptor [8]): 58.7%; % native insulin activity (0.6 nM) (human insulin receptor [8]): 90.9%
